{
  "source": "patent US20090104178A1",
  "key": {"LIGHT (TNFL14)": {"target": "LIGHT (TNFL14)", "test": "SPR"}, "APRIL (TNFL13)": {"target": "APRIL (TNFL13)", "test": "SPR"}},
  "note": "pKd: −log10 of the molar value.",
  "data": [
    {"substance": "Purified recombinant EV CrmD protein (receptor)", "values": [
      {"measurement": "pKd", "setting": "LIGHT (TNFL14)", "value": 6.85},
      {"measurement": "pKd", "setting": "APRIL (TNFL13)", "value": 3.96}
    ]}
  ]
}
